Source: the supplement of paper PMC9170038
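Also: bound reporter read as fluorescence of individual clusters on recovered sequencing chips by microscopy, with normalized cluster intensities fitted with a binding model.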

The sequences below were run on K4 kissing-loop RNA reporter (assay: apparent KD of K4 kissing-loop reporter; higher = weaker reporter binding). Conditions: Eterna round: R107; input ligand: arginine 13.2 mM.
Description: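 RNA-MaP round R107: designed RNA switches with theophylline, tryptophan, arginine or FMN aptamers are transcribed on-chip within common flanks. They are titrated with a labelled K4 kissing-loop RNA reporter in RNA-MaP buffer (100 mM Tris pH 7.5, 80 mM KCl, 4 mM MgCl2), without ligand or with the indicated ligand. Median apparent KD per design.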
In the case of “CCAGGACGAUGAGGAGGAUGAAUUACUGAAGGAGCGCAUAUGGUUGCAGGUAGGUCGCGGUGAACAAGUAUAGUGAUGUUAUACC [SSArgA.T]”, the “apparent KD of K4 kissing-loop reporter” value is reported as 290 nM.
“GCGCGUCAUGUCAGCGGUGACUACGUCGAUACCAGCAGGGAAACCUGCCCUUGGCAGCGACGCGCUGGAGUGAUGUUCCGACGGA [#2 Exclusion - Theophylline A Attempt #6 (HarryS)]” was tested, and the “apparent KD of K4 kissing-loop reporter” value was 431 nM.
“CUCGAGUGAUGUUCGAUUAUUUAUACAGAUACCAGUGAAUUUUAACACCCUUGGCAGCUGGUUGUAUCUUUGUAAUUUACACAAG [JR_ExcTheophyA_Sub005]” was tested, and the “apparent KD of K4 kissing-loop reporter” value was 168 nM.
In the case of “AGAAGGAGAACUGCAAGAACUCCUUCAGACUAGGAUAUCAGGAAACUGAGAAGGAGUCAACUUGCAGUGAUGUUGCAAGAAUAAU [[F]''-[K]'-[F]'-[F1]-[F2]-[K1]-[K2]_Design1]”, the “apparent KD of K4 kissing-loop reporter” value is reported as 114 nM.
In the case of “ACGGGCGGCUGAAGGAGCGGGCGGGCCCGAGUGAUGUUCGGGUGGGCCGUGAGGCCCGGAGCCCAGGUAGGUCGCGGUUCCGUCC [#2 Same State - Arginine B Attempt #21 (HarryS)]”, the “apparent KD of K4 kissing-loop reporter” value is reported as 104 nM.
“CUGGGUUGACGAAAAGUCAACAAACGAGAAGGAGCGCACGAAAGUGCAGGUAGGUCGCUCAGUCCAGUGAUGUUGGAUCAUCCAG [#SwitchBubble 9 #K4Late]” was tested, and the “apparent KD of K4 kissing-loop reporter” value was 763 nM.
“GAAUUAUGUAGAAGGAGCGUUAGAAGGUAUAGGUGUGAGUGAUGUUCGGAUUUGUUAAUUUGACAGGUAGGUCGCUACAGAAGGA [KL-SSArg B17 #analogue]” was tested, and the “apparent KD of K4 kissing-loop reporter” value was 267 nM.
For “UUGAGCCGGACUCAAGUCCGGCUCUGCGAGCGAGGACCGGUACGGCCGCCACUCGGUGCAGUGAUGUUGCAUGGCCGCAAGGCCG [#2 Exclusion - Tryptophan A Attempt #13 (HarryS)]”, the “apparent KD of K4 kissing-loop reporter” value was 133 nM.
“UGUGGUGUAUCCUUUAGGAGUGAUGUUUUUCGAGGACCGGUACGGCCGCCACUCGAGUGAUGAGAGCGUCGUUGUGGUGGUUUGU [#16 K4 Tryptophan A Exclusion]” was tested, and the “apparent KD of K4 kissing-loop reporter” value was 698 nM.
For “AAAAUAAACCAGUGAUGUUGGUGUCUAGAUACCAGCGACGAAAGUCGCCCUUGGCAGCUAUGGACGUACAAAAUAAGUACGUCCU [MatMod 6 - Jieux - Same State - Theophylline A]”, the “apparent KD of K4 kissing-loop reporter” value was 459 nM.
In the case of “AAAUUUUAAAGUGAUACCAGACAUCUCUAUUACAUUAAUAUAGCUAAGUGAUGUUUAGCAGUCCCUUGGCAGCACAAUUUAAUUA [JR_SSTheophyB_Sub012]”, the “apparent KD of K4 kissing-loop reporter” value is reported as 316 nM.
“AGUUCUUGCCGAAGGAGCGAGGCAGAGUGAUGUUCUGCAGAUGUCGAAAGACAUCAACUGCCUCAGGUAGGUCGCGGCAUGAACA [#05 K4 Arginine B Exclusion]” was tested, and the “apparent KD of K4 kissing-loop reporter” value was 74 nM.
In the case of “UUGAUAUGAUAAUAUCCUGUUUGAUAAAGACAGGAUAUAGAAAAUACUAGAAGGGUCAUUAUAUGCAGUGAUGUUGCAAAUAAGU [Exclusion FMN A Gf 23]”, the “apparent KD of K4 kissing-loop reporter” value is reported as 67.3 nM.
In the case of “UGAUACCAGACUGAUACCAGCUAGUGAUGUUAGCUAAAAUCAGGGUCAAAGACCCUGUCUGGCCCUUGGCAGCAGUCUGGUAUCU [TheoBX 10 #SwitchBubble #StaticStem]”, the “apparent KD of K4 kissing-loop reporter” value is reported as 120 nM.
In the case of “CAAUGAGUAUAAGAUGAUAUCAUAACAGAAGGAGCGAGUGAUAACUCAGGUAGGUCGCUGAAUUUAUCGAGUGAUGUUCGAUAAA [whbob_SS_Arginine_A_sa116]”, the “apparent KD of K4 kissing-loop reporter” value is reported as 154 nM.
In the case of “UGUGUUUACCUGACUCAGUGAUGUUGAGAAGGAGCGUGCAAAAGCACAGGUAGGUCGCUCAACCUAAAUUCAGGUGAGCACUAAA”, the “apparent KD of K4 kissing-loop reporter” value is reported as 201 nM.

Same assay, conditions: Eterna round: R107; input ligand: none
For “AAGGAAUGUAUAGAUUAUAUACAUUCAACAGAGGAUAUGCAUUAUUGCAGAAGGCUGAAUGCAGUGAUGUUGCAAUAAUUAUUUA [#09 K4 FMN A Same State]”, the “apparent KD of K4 kissing-loop reporter” value was 181 nM.
“ACGUAGUACGUAGGAUAUCAGAGAUCAGUUAGUGAGAUCGAGUGAUGUUCGAUCAUGUGUUCAGUUUGAGAAGGAUGUAGUAGGA [KL-SSFMN-B5]” was tested, and the “apparent KD of K4 kissing-loop reporter” value was 355 nM.
For “GUACGCUCUCGAGUGAUGUUCGGUAAUCCUUAGGAUAUCGCUUUUGCGAGAAGGAAGGGAAUGAGGAAACUCGUUCUGAGUGUAC [FMN A 21]”, the “apparent KD of K4 kissing-loop reporter” value was 366 nM.
In the case of “CCGAGCCUGACGAAAGUCAGGCUCUGCGAGCGAGGACCGGUACGGCCGCCACUCGGUGCAGUGAUGUUGCAUGGCCGCAAGGCCG [#2 Exclusion - Tryptophan A Attempt #22 (HarryS)]”, the “apparent KD of K4 kissing-loop reporter” value is reported as 240 nM.
In the case of “UUUUUGGAGAAUUAUAGUGAUGUUAUGAAGGAGGAUAUCUGGAGAUGGAGAAGGCCUAGUGGCUCAGCCAUGGAGGGUGGGUGGG [ExFMNA.aA]”, the “apparent KD of K4 kissing-loop reporter” value is reported as 894 nM.
“AGACUACCACACUGUCAAUAGACAGUGGACUAGGAUAUGCUGAUAAGCAGAAGGAGUGAUGUUCCUUGGUAGUCAAUAAAAUAAU [FmnAX 13 G28+U67]” was tested, and the “apparent KD of K4 kissing-loop reporter” value was 253 nM.
With “GGGAGAGCGCGAAGGAGCGCCCUGACAGGUUGCUGCCGUGGGCAGUGAUGUUGCUCAGUCCGGCAGGUAGGUCGCGUGCUCUCCC” the “apparent KD of K4 kissing-loop reporter” value was 192 nM.
In the case of “ACGACGCAUAGUGAUACCAGCUAUAUAUGAGUGAUGUUCUACCUAAAAUGGUAAUAAUUUAGCCCUUGGCAGCACUAUGCGUCAG [KL-SSTheoB4]”, the “apparent KD of K4 kissing-loop reporter” value is reported as 377 nM.
“AGGAGUGAUGUUCCUACAUAGACGGUCCAACGAGGACCGGUACGGCCGCCACUCGCGACCCAGUGAUGUUGGGAUUCACCGUACA [Exclusion Tryptophan A Gf 14]” was tested, and the “apparent KD of K4 kissing-loop reporter” value was 818 nM.
For “UUAGAAGUAUACUUCAAGAGCUAUACUGAUACCAGAGUCAAUUGACUCCCUUGGCAGCGGAUCGAGUGAUGUUCGUAAGCUCAUU [AK4 SS Theophylline A]”, the “apparent KD of K4 kissing-loop reporter” value was 583 nM.
For “UAAGAGGACCACUGCAAGAGUCCUCGAAUACGAGGACCGGUACGGCCGCCACUCGAUAACUUGCAGUGAUGUUGCAAGUAAGAAU [(T)''-(K)'-(T)'-(T1)-(T2)-(K1)-(K2)_Design1]”, the “apparent KD of K4 kissing-loop reporter” value was 119 nM.
For “UGUGUUUACCUGACUCAGUGAUGUUGAGAAGGAGCGUGCAAAGGCACAGGUAGGUCGCUCAACCUAAAUUCAGGUGAGCACUAAA”, the “apparent KD of K4 kissing-loop reporter” value was 240 nM.
“UUCAGUGAUGUUGAACACUGUUGUAUAAACUAGGAUAUGCUGAUAAGCAGAAGGAGUGAUGUUCCGUUCAUCAUCAGAAUUAAAU [KL-XFMN-A3]” was tested, and the “apparent KD of K4 kissing-loop reporter” value was 360 nM.
“CCUAUCUCAUACGAUACCAGUCAAUUAAAUUUUAUAAAUGCCAUCACCGAGUGAUGUUCGGACCCUUGGCAGCGUAUGGGAUAGG [Ex Theophylline B K4 2]” was tested, and the “apparent KD of K4 kissing-loop reporter” value was 198 nM.
“CCAGGACGAUGAGGAGGAUGAAUUACUGAAGGAGCGCAUAUGGUUGCAGGUAGGUCGCGGUGAACAAGUAUAGUGAUGUUAUACC [SSArgA.T]” was tested, and the “apparent KD of K4 kissing-loop reporter” value was 368 nM.
With “GCGCGUCAUGUCAGCGGUGACUACGUCGAUACCAGCAGGGAAACCUGCCCUUGGCAGCGACGCGCUGGAGUGAUGUUCCGACGGA [#2 Exclusion - Theophylline A Attempt #6 (HarryS)]” the “apparent KD of K4 kissing-loop reporter” value was 544 nM.
With “CUCGAGUGAUGUUCGAUUAUUUAUACAGAUACCAGUGAAUUUUAACACCCUUGGCAGCUGGUUGUAUCUUUGUAAUUUACACAAG [JR_ExcTheophyA_Sub005]” the “apparent KD of K4 kissing-loop reporter” value was 113 nM.
“AGAAGGAGAACUGCAAGAACUCCUUCAGACUAGGAUAUCAGGAAACUGAGAAGGAGUCAACUUGCAGUGAUGUUGCAAGAAUAAU [[F]''-[K]'-[F]'-[F1]-[F2]-[K1]-[K2]_Design1]” was tested, and the “apparent KD of K4 kissing-loop reporter” value was 119 nM.
With “ACGGGCGGCUGAAGGAGCGGGCGGGCCCGAGUGAUGUUCGGGUGGGCCGUGAGGCCCGGAGCCCAGGUAGGUCGCGGUUCCGUCC [#2 Same State - Arginine B Attempt #21 (HarryS)]” the “apparent KD of K4 kissing-loop reporter” value was 182 nM.
In the case of “CUGGGUUGACGAAAAGUCAACAAACGAGAAGGAGCGCACGAAAGUGCAGGUAGGUCGCUCAGUCCAGUGAUGUUGGAUCAUCCAG [#SwitchBubble 9 #K4Late]”, the “apparent KD of K4 kissing-loop reporter” value is reported as 687 nM.
“GAAUUAUGUAGAAGGAGCGUUAGAAGGUAUAGGUGUGAGUGAUGUUCGGAUUUGUUAAUUUGACAGGUAGGUCGCUACAGAAGGA [KL-SSArg B17 #analogue]” was tested, and the “apparent KD of K4 kissing-loop reporter” value was 242 nM.
“UUGAGCCGGACUCAAGUCCGGCUCUGCGAGCGAGGACCGGUACGGCCGCCACUCGGUGCAGUGAUGUUGCAUGGCCGCAAGGCCG [#2 Exclusion - Tryptophan A Attempt #13 (HarryS)]” was tested, and the “apparent KD of K4 kissing-loop reporter” value was 482 nM.
“UGUGGUGUAUCCUUUAGGAGUGAUGUUUUUCGAGGACCGGUACGGCCGCCACUCGAGUGAUGAGAGCGUCGUUGUGGUGGUUUGU [#16 K4 Tryptophan A Exclusion]” was tested, and the “apparent KD of K4 kissing-loop reporter” value was 1190 nM.
For “AAAAUAAACCAGUGAUGUUGGUGUCUAGAUACCAGCGACGAAAGUCGCCCUUGGCAGCUAUGGACGUACAAAAUAAGUACGUCCU [MatMod 6 - Jieux - Same State - Theophylline A]”, the “apparent KD of K4 kissing-loop reporter” value was 617 nM.
For “AAAUUUUAAAGUGAUACCAGACAUCUCUAUUACAUUAAUAUAGCUAAGUGAUGUUUAGCAGUCCCUUGGCAGCACAAUUUAAUUA [JR_SSTheophyB_Sub012]”, the “apparent KD of K4 kissing-loop reporter” value was 334 nM.
With “AGUUCUUGCCGAAGGAGCGAGGCAGAGUGAUGUUCUGCAGAUGUCGAAAGACAUCAACUGCCUCAGGUAGGUCGCGGCAUGAACA [#05 K4 Arginine B Exclusion]” the “apparent KD of K4 kissing-loop reporter” value was 99.6 nM.
With “UUGAUAUGAUAAUAUCCUGUUUGAUAAAGACAGGAUAUAGAAAAUACUAGAAGGGUCAUUAUAUGCAGUGAUGUUGCAAAUAAGU [Exclusion FMN A Gf 23]” the “apparent KD of K4 kissing-loop reporter” value was 45.7 nM.
With “UGAUACCAGACUGAUACCAGCUAGUGAUGUUAGCUAAAAUCAGGGUCAAAGACCCUGUCUGGCCCUUGGCAGCAGUCUGGUAUCU [TheoBX 10 #SwitchBubble #StaticStem]” the “apparent KD of K4 kissing-loop reporter” value was 134 nM.
For “CAAUGAGUAUAAGAUGAUAUCAUAACAGAAGGAGCGAGUGAUAACUCAGGUAGGUCGCUGAAUUUAUCGAGUGAUGUUCGAUAAA [whbob_SS_Arginine_A_sa116]”, the “apparent KD of K4 kissing-loop reporter” value was 187 nM.
